Results on 1 substance are retold here after paper PMC3251506.

This assay deals with Epstein-Barr virus glycoprotein H / glycoprotein L complex (gH/gL), wild type (Epstein-Barr virus) (UniProt P03231). Briefly: CELISA.

“Epstein-Barr virus glycoprotein 42 (gp42), wild type, soluble form in medium (from UniProt P03205) (natural protein)” registered a percent decrease of gH/gL binding to HEK 293 cells by soluble gp42 of 50%.
